*1 amine or outer side, *2 acyl side, *3 side chain or, on linkers, in order; H or OH if unused. Where no end group is shown, it is not given here. Side-chain parts run from the residue outwards. [ ]: non-standard residue; d: D form. The star is where a group is joined. phenyl lactic acid = phenyl lactic acid at the N-terminus; C16 diacid = O=C(O)CCCCCCCCCCCCCCC(=O)*; γGlu = O=C(O)[C@H](CCC(=O)[*:2])N[*:1]; Nle = CCCC[C@H](N)C(=O)O; Aib = CC(C)(N)C(=O)O
T1: human GIP receptor (human, UniProt P48546 22-466)
T1 sequence (looked up): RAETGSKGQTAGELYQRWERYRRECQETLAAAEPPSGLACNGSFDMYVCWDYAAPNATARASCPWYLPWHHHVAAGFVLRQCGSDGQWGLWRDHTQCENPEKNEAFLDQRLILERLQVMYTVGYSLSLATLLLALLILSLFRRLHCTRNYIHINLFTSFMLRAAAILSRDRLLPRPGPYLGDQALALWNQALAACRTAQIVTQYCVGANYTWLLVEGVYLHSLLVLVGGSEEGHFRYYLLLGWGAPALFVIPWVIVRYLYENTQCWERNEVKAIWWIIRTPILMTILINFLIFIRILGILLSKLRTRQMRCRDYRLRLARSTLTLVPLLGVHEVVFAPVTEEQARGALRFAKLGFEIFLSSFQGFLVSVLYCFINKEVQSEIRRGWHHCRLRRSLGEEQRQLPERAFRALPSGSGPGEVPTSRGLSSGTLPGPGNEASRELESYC

B1: AT668 (peptide)
peptide: EGTFISDYSIALDKIK(C16 diacid)QQDFVEWLLAQKPSSGAPPPS-OH
modifications: N-terminus assumed
SMILES: CC[C@H](C)[C@H](NC(=O)[C@H](CO)NC(=O)[C@H](Cc1ccc(O)cc1)NC(=O)[C@H](CC(=O)O)NC(=O)[C@H](CO)NC(=O)[C@@H](NC(=O)[C@H](Cc1ccccc1)NC(=O)[C@@H](NC(=O)CNC(=O)[C@@H](N)CCC(=O)O)[C@@H](C)O)[C@@H](C)CC)C(=O)N[C@@H](C)C(=O)N[C@@H](CC(C)C)C(=O)N[C@@H](CC(=O)O)C(=O)N[C@@H](CCCCN)C(=O)N[C@H](C(=O)N[C@@H](CCCCNC(=O)CCCCCCCCCCCCCCC(=O)O)C(=O)N[C@@H](CCC(N)=O)C(=O)N[C@@H](CCC(N)=O)C(=O)N[C@@H](CC(=O)O)C(=O)N[C@@H](Cc1ccccc1)C(=O)N[C@H](C(=O)N[C@@H](CCC(=O)O)C(=O)N[C@@H](Cc1c[nH]c2ccccc12)C(=O)N[C@@H](CC(C)C)C(=O)N[C@@H](CC(C)C)C(=O)N[C@@H](C)C(=O)N[C@@H](CCC(N)=O)C(=O)N[C@@H](CCCCN)C(=O)N1CCC[C@H]1C(=O)N[C@@H](CO)C(=O)N[C@@H](CO)C(=O)NCC(=O)N[C@@H](C)C(=O)N1CCC[C@H]1C(=O)N1CCC[C@H]1C(=O)N1CCC[C@H]1C(=O)N[C@@H](CO)C(=O)O)C(C)C)[C@@H](C)CC
B2: AT643 (peptide)
peptide: DTTFISDYSIAMDKIK(C16 diacid)QQDFVNWLLAQKPSSGAPPPS-OH
modifications: N-terminus assumed
SMILES: CC[C@H](C)[C@H](NC(=O)[C@H](CO)NC(=O)[C@H](Cc1ccc(O)cc1)NC(=O)[C@H](CC(=O)O)NC(=O)[C@H](CO)NC(=O)[C@@H](NC(=O)[C@H](Cc1ccccc1)NC(=O)[C@@H](NC(=O)[C@@H](NC(=O)[C@@H](N)CC(=O)O)[C@@H](C)O)[C@@H](C)O)[C@@H](C)CC)C(=O)N[C@@H](C)C(=O)N[C@@H](CCSC)C(=O)N[C@@H](CC(=O)O)C(=O)N[C@@H](CCCCN)C(=O)N[C@H](C(=O)N[C@@H](CCCCNC(=O)CCCCCCCCCCCCCCC(=O)O)C(=O)N[C@@H](CCC(N)=O)C(=O)N[C@@H](CCC(N)=O)C(=O)N[C@@H](CC(=O)O)C(=O)N[C@@H](Cc1ccccc1)C(=O)N[C@H](C(=O)N[C@@H](CC(N)=O)C(=O)N[C@@H](Cc1c[nH]c2ccccc12)C(=O)N[C@@H](CC(C)C)C(=O)N[C@@H](CC(C)C)C(=O)N[C@@H](C)C(=O)N[C@@H](CCC(N)=O)C(=O)N[C@@H](CCCCN)C(=O)N1CCC[C@H]1C(=O)N[C@@H](CO)C(=O)N[C@@H](CO)C(=O)NCC(=O)N[C@@H](C)C(=O)N1CCC[C@H]1C(=O)N1CCC[C@H]1C(=O)N1CCC[C@H]1C(=O)N[C@@H](CO)C(=O)O)C(C)C)[C@@H](C)CC
B3: AT644 (peptide)
peptide: GETFISDYAIALDKIK(C16 diacid)QQDFVEWLLAQGPSSGAPPPS-OH
modifications: N-terminus assumed
SMILES: CC[C@H](C)[C@H](NC(=O)[C@H](C)NC(=O)[C@H](Cc1ccc(O)cc1)NC(=O)[C@H](CC(=O)O)NC(=O)[C@H](CO)NC(=O)[C@@H](NC(=O)[C@H](Cc1ccccc1)NC(=O)[C@@H](NC(=O)[C@H](CCC(=O)O)NC(=O)CN)[C@@H](C)O)[C@@H](C)CC)C(=O)N[C@@H](C)C(=O)N[C@@H](CC(C)C)C(=O)N[C@@H](CC(=O)O)C(=O)N[C@@H](CCCCN)C(=O)N[C@H](C(=O)N[C@@H](CCCCNC(=O)CCCCCCCCCCCCCCC(=O)O)C(=O)N[C@@H](CCC(N)=O)C(=O)N[C@@H](CCC(N)=O)C(=O)N[C@@H](CC(=O)O)C(=O)N[C@@H](Cc1ccccc1)C(=O)N[C@H](C(=O)N[C@@H](CCC(=O)O)C(=O)N[C@@H](Cc1c[nH]c2ccccc12)C(=O)N[C@@H](CC(C)C)C(=O)N[C@@H](CC(C)C)C(=O)N[C@@H](C)C(=O)N[C@@H](CCC(N)=O)C(=O)NCC(=O)N1CCC[C@H]1C(=O)N[C@@H](CO)C(=O)N[C@@H](CO)C(=O)NCC(=O)N[C@@H](C)C(=O)N1CCC[C@H]1C(=O)N1CCC[C@H]1C(=O)N1CCC[C@H]1C(=O)N[C@@H](CO)C(=O)O)C(C)C)[C@@H](C)CC
B4: AT646 (peptide)
peptide: GETFISTYSIALDKIK(C16 diacid)QQDFVEWLLAQKPSSGAPPPS-OH
modifications: N-terminus assumed
SMILES: CC[C@H](C)[C@H](NC(=O)[C@H](CO)NC(=O)[C@H](Cc1ccc(O)cc1)NC(=O)[C@@H](NC(=O)[C@H](CO)NC(=O)[C@@H](NC(=O)[C@H](Cc1ccccc1)NC(=O)[C@@H](NC(=O)[C@H](CCC(=O)O)NC(=O)CN)[C@@H](C)O)[C@@H](C)CC)[C@@H](C)O)C(=O)N[C@@H](C)C(=O)N[C@@H](CC(C)C)C(=O)N[C@@H](CC(=O)O)C(=O)N[C@@H](CCCCN)C(=O)N[C@H](C(=O)N[C@@H](CCCCNC(=O)CCCCCCCCCCCCCCC(=O)O)C(=O)N[C@@H](CCC(N)=O)C(=O)N[C@@H](CCC(N)=O)C(=O)N[C@@H](CC(=O)O)C(=O)N[C@@H](Cc1ccccc1)C(=O)N[C@H](C(=O)N[C@@H](CCC(=O)O)C(=O)N[C@@H](Cc1c[nH]c2ccccc12)C(=O)N[C@@H](CC(C)C)C(=O)N[C@@H](CC(C)C)C(=O)N[C@@H](C)C(=O)N[C@@H](CCC(N)=O)C(=O)N[C@@H](CCCCN)C(=O)N1CCC[C@H]1C(=O)N[C@@H](CO)C(=O)N[C@@H](CO)C(=O)NCC(=O)N[C@@H](C)C(=O)N1CCC[C@H]1C(=O)N1CCC[C@H]1C(=O)N1CCC[C@H]1C(=O)N[C@@H](CO)C(=O)O)C(C)C)[C@@H](C)CC
B5: AT650 (peptide)
peptide: EGTFISDYSIAMDKIK(C16 diacid)QQDFVNWLLAQKPSSGAPPPS-NH2
modifications: N-terminus assumed
SMILES: CC[C@H](C)[C@H](NC(=O)[C@H](CO)NC(=O)[C@H](Cc1ccc(O)cc1)NC(=O)[C@H](CC(=O)O)NC(=O)[C@H](CO)NC(=O)[C@@H](NC(=O)[C@H](Cc1ccccc1)NC(=O)[C@@H](NC(=O)CNC(=O)[C@@H](N)CCC(=O)O)[C@@H](C)O)[C@@H](C)CC)C(=O)N[C@@H](C)C(=O)N[C@@H](CCSC)C(=O)N[C@@H](CC(=O)O)C(=O)N[C@@H](CCCCN)C(=O)N[C@H](C(=O)N[C@@H](CCCCNC(=O)CCCCCCCCCCCCCCC(=O)O)C(=O)N[C@@H](CCC(N)=O)C(=O)N[C@@H](CCC(N)=O)C(=O)N[C@@H](CC(=O)O)C(=O)N[C@@H](Cc1ccccc1)C(=O)N[C@H](C(=O)N[C@@H](CC(N)=O)C(=O)N[C@@H](Cc1c[nH]c2ccccc12)C(=O)N[C@@H](CC(C)C)C(=O)N[C@@H](CC(C)C)C(=O)N[C@@H](C)C(=O)N[C@@H](CCC(N)=O)C(=O)N[C@@H](CCCCN)C(=O)N1CCC[C@H]1C(=O)N[C@@H](CO)C(=O)N[C@@H](CO)C(=O)NCC(=O)N[C@@H](C)C(=O)N1CCC[C@H]1C(=O)N1CCC[C@H]1C(=O)N1CCC[C@H]1C(=O)N[C@@H](CO)C(N)=O)C(C)C)[C@@H](C)CC

target: T1, human GIP receptor; assay: cell-based or functional assay

Compared with B1, EGTFISDYSI[Aib][Nle]DKIK(C16 diacid)QQDFVEWLLAQKPSSGAPPPS-OH [AT667] is higher in “cAMP agonism % Emax” value: 0% for the first, 4% for the second.

B2 and B3 are the same in “cAMP agonism % Emax” value: 0% for the first, 0% for the second.

First: EGTFISDYSI[Aib]MDKIK(C16 diacid)QQDFVEWLLAQKPSSGAPPPS-OH [AT665]
Second: {phenyl lactic acid}-PGTFISDYSIAMDKIKQQDFVNWLLAQKPSSGAPPPSK(C16 diacid)-NH2 (not fully specified) [AT652]
The “cAMP agonism % Emax” value of the first is lower: 0% for the first, 17% for the second.

B4 and B5 are the same in “cAMP agonism % Emax” value: 0% for the first, 0% for the second.

EGTFISTYK([γGlu-C16 diacid])IALDKIHQQDFVEWLLAQKPSSGAPPPS-OH [AT647] was tested, and the “cAMP agonism % Emax” value was 0%.

B1 and EGTFISDYSI[Aib][Nle]DKIK(C16 diacid)QQDFVEWLLAQKPSSGAPPPS-OH [AT667] are within 1.5-fold of each other in “cAMP antagonism” value: 0.944 nM for the first, 0.736 nM for the second.

Compared with B2, B3 is 1.5-fold higher in “cAMP antagonism” value: 11.2 nM for the first, 17.1 nM for the second.

First: EGTFISDYSI[Aib]MDKIK(C16 diacid)QQDFVEWLLAQKPSSGAPPPS-OH [AT665]
Second: {phenyl lactic acid}-PGTFISDYSIAMDKIKQQDFVNWLLAQKPSSGAPPPSK(C16 diacid)-NH2 (not fully specified) [AT652]
The “cAMP antagonism” value of the first is 71-fold lower: 0.15 nM for the first, 10.6 nM for the second.

First: B4
Second: B5
The “cAMP antagonism” value of the first is 2.7-fold higher: 10 nM for the first, 3.69 nM for the second.

In the case of EGTFISTYK([γGlu-C16 diacid])IALDKIHQQDFVEWLLAQKPSSGAPPPS-OH [AT647], the “cAMP antagonism” value is reported as 18.8 nM.

Going from B1 to EGTFISDYSI[Aib][Nle]DKIK(C16 diacid)QQDFVEWLLAQKPSSGAPPPS-OH [AT667], the “cAMP antagonism % inhib” value falls from 92% to 86%.

Compared with B2, B3 is higher in “cAMP antagonism % inhib” value: 90% for the first, 93% for the second.

First: EGTFISDYSI[Aib]MDKIK(C16 diacid)QQDFVEWLLAQKPSSGAPPPS-OH [AT665]
Second: {phenyl lactic acid}-PGTFISDYSIAMDKIKQQDFVNWLLAQKPSSGAPPPSK(C16 diacid)-NH2 (not fully specified) [AT652]
The “cAMP antagonism % inhib” value of the first is higher: 88% for the first, 60% for the second.

Compared with B4, B5 is lower in “cAMP antagonism % inhib” value: 96% for the first, 94% for the second.

EGTFISTYK([γGlu-C16 diacid])IALDKIHQQDFVEWLLAQKPSSGAPPPS-OH [AT647] was tested, and the “cAMP antagonism % inhib” value was 100%.

B1 and EGTFISDYSI[Aib][Nle]DKIK(C16 diacid)QQDFVEWLLAQKPSSGAPPPS-OH [AT667] are within 0.2 log units of each other in “cAMP antagonism pIC50” value: 9 for the first, 9.1 for the second.

Going from B2 to B3, the “cAMP antagonism pIC50” value falls from 8 to 7.8.

First: EGTFISDYSI[Aib]MDKIK(C16 diacid)QQDFVEWLLAQKPSSGAPPPS-OH [AT665]
Second: {phenyl lactic acid}-PGTFISDYSIAMDKIKQQDFVNWLLAQKPSSGAPPPSK(C16 diacid)-NH2 (not fully specified) [AT652]
The “cAMP antagonism pIC50” value of the first is higher: 9.8 for the first, 8 for the second.

Compared with B4, B5 is higher in “cAMP antagonism pIC50” value: 8 for the first, 8.4 for the second.

In the case of EGTFISTYK([γGlu-C16 diacid])IALDKIHQQDFVEWLLAQKPSSGAPPPS-OH [AT647], the “cAMP antagonism pIC50” value is reported as 7.7.

Reference: patent US20220298218A1 (ANTAG THERAPEUTICS, published 2022)
